From PMC3706390

How the values were obtained:
Test in all cases: EMSA
Conditions in all cases: 30 mM Tris-HCl pH 8.0, 75 mM KCl, 5 mM MgCl2, 1 mM DTT, 0.04 ug/uL BSA, 10% glycerol, 50 ng/uL yeast tRNA, 30 C 15 min; EMSA gels 0.5X TBE at 4 C; RNase …
L30 K87A K87A (rat) = L30 K87A K87A (rat) (UniProt P62890)
L30 Y89A Y89A (rat) = L30 Y89A Y89A (rat) (UniProt P62890)
L30 K36A K36A (rat) = L30 K36A K36A (rat) (UniProt P62890)
L30 L35A L35A (rat) = L30 L35A L35A (rat) (UniProt P62890)

Substance: PHGPx SECIS 102 nt (REMSA)
- binding signal (% of WT binding) (L30 K87A K87A (rat)): 60
- binding signal (% of WT binding) (L30 Y89A Y89A (rat)): 32
- binding signal (% of WT binding) (L30 K36A K36A (rat)): 78
- binding signal (% of WT binding) (L30 L35A L35A (rat)): 86
